Blank lines part the entries; values can stand above or below the substance they belong to.
Experiments:
Test in all cases: cell-based or functional assay
[1] = target: FKBP.FRB.ΔC9 expressed from pBP1311-pSFG.FKBP.FRB.ΔC9.T2A-ΔCD19
[2] = target: FRB.FKBP.ΔC9 expressed from pBP1310-pSFG.FRB.FKBP.ΔC9.T2A-ΔCD19
[3] = target: ΔMyr.iMC (MyD88.CD40.Fv'.Fv) expressed from pBP0606-pSFG-k-ΔMyr.iMC.2A-ΔCD19 (human)
[4] = target: Her2-CAR-FRBl2 (1st generation Her2-CAR fused to two tandem FRBl domains)
[5] = target: CD19-CAR-FRBl2 (1st generation CD19-CAR fused to two tandem FRBl domains, co-expressed with iCaspase9 from iC9-CAR(19).FRBl2)

Chain of FRB.FKBP.ΔC9 expressed from pBP1310-pSFG.FRB.FKBP.ΔC9.T2A-ΔCD19 (P55211 other isoform, or with tags, fused parts or gaps, stated change not applied): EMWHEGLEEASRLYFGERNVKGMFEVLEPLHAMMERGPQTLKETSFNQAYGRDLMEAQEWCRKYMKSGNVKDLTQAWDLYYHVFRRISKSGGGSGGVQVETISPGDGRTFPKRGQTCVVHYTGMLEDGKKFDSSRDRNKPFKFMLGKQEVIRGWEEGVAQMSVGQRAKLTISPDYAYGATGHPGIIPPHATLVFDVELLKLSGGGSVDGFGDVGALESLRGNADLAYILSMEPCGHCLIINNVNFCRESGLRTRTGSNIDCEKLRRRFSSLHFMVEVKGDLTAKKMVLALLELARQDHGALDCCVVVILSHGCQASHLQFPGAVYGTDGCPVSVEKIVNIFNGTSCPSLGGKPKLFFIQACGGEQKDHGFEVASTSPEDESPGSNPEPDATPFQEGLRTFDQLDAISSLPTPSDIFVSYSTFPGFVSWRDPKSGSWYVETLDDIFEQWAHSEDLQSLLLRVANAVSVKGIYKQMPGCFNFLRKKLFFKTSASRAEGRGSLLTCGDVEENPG
Chain of FRBL2.Caspase9 expressed from pBP0668-pSFG-FRBlx2.Caspase9.2A-Q.8stm.CD3zeta (chain, part): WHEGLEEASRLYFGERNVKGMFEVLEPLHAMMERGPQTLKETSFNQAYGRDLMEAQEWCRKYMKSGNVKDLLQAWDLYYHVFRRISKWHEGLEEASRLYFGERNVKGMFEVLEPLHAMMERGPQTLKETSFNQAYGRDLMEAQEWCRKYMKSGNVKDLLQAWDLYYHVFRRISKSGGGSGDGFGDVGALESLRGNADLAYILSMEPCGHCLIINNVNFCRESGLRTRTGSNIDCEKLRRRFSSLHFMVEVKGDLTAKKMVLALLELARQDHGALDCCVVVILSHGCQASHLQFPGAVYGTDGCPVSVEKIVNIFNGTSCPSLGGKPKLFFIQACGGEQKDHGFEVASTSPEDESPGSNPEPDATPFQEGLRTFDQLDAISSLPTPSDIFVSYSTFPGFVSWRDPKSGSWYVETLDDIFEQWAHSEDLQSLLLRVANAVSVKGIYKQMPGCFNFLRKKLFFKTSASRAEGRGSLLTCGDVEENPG
Chain of FKBP.FRB.ΔC9 expressed from pBP1311-pSFG.FKBP.FRB.ΔC9.T2A-ΔCD19 (P55211 other isoform, or with tags, fused parts or gaps, stated change not applied): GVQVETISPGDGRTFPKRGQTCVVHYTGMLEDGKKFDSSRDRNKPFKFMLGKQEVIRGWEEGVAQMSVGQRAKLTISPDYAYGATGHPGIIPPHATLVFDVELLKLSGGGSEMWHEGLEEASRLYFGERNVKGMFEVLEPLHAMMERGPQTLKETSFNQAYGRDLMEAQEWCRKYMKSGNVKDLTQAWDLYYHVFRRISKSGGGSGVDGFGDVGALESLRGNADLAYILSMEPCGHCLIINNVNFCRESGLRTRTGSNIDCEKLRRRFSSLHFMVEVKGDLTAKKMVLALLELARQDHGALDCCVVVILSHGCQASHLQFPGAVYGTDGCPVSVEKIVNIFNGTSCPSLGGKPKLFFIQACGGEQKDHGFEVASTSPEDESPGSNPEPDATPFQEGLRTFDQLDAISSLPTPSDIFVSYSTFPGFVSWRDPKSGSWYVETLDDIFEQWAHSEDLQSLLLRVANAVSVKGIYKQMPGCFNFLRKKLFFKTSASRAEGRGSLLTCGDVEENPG
Chain of ΔMyr.iMC (MyD88.CD40.Fv'.Fv) expressed from pBP0606-pSFG-k-ΔMyr.iMC.2A-ΔCD19 (human) (main, as listed by the source mutant): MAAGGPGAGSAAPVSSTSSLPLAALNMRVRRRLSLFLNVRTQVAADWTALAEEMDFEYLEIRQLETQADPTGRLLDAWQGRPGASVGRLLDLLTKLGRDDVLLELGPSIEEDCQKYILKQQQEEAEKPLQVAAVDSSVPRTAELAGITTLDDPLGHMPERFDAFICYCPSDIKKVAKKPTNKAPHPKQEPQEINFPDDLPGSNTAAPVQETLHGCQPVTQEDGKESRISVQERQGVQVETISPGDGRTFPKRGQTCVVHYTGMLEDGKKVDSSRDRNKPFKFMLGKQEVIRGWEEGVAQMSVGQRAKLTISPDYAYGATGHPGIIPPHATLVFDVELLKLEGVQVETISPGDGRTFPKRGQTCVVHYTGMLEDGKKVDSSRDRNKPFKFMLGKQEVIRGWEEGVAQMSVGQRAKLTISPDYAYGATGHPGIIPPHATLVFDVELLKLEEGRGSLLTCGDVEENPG

- rapamycin concentration (small molecule) at which the construct was still highly active, caspase 3/7 and SRα-SEAP assays in transfected 293 cells [1]: 100 pM
Substance: FKBP.FRB.ΔC9 expressed from pBP1311-pSFG.FKBP.FRB.ΔC9.T2A-ΔCD19

- rapamycin concentration (small molecule) at which the construct was still highly active, caspase 3/7 and SRα-SEAP assays in transfected 293 cells [2]: 100 pM
Substance: FRB.FKBP.ΔC9 expressed from pBP1310-pSFG.FRB.FKBP.ΔC9.T2A-ΔCD19

- rapamycin concentration at which doubly transduced (CD34+CD19+) primary T cells were eliminated, flow cytometry after 24 hours [3]: 2 nM
Substance: FRBL2.Caspase9 expressed from pBP0668-pSFG-FRBlx2.Caspase9.2A-Q.8stm.CD3zeta

- SRα-SEAP reporter activity of transfected 293 cells after overnight rapamycin (small-molecule heterodimerizer) [4]: 50 % decrease
- SRα-SEAP reporter activity of transfected 293 cells after overnight rapamycin (small-molecule heterodimerizer) [5]: 50 % decrease
Substance: iCaspase-9 as used in Example 17
